Test results: patent US20260258115A1 (MAPP BIOPHARMACEUTICAL, published 2026)

B1: ADI-41570 (antibody, V domains shown)
VH: QVQLVQSGAEVKKPGSSVKVSCMASGGTFSNSAINWVRQAPGQGLEWMGGTIPIFGAANYAQRFQARVTITADKSTSTAYMELTSLRSDDTAVYYCVRTPHRSSDHIWGSYRYFDSWGQGTLVTVSS
VL: QSVVTQEPSVSAAPGQKITISCSGSTSNIGINYVSWYQQFPGTAPKLLIYDNDKRPSGIPDRFSGSKSGTSATLGITGLQAGDEADYYCGTWDSSLSAGHIFGGGTKVTVL
notes: also called Ab 848; Antibody Number 848
B2: ADI-41581 (antibody, V domains shown)
VH: EVQLLESGSELKKPGASVKISCKTSGYTFTNYLMNWVRQAPGQGLEWMGWINTHTGNPTYAQDFTGRFVFSLDTSVNTAYLQISSLKAEDTAIYYCARDGLEAFSGYNGVDYWGQGTLVTVSS
VL: DIVMTQTPLSLPVTPGEPASISCRSSPSLLHSNGYNYLDWYLQKPGQSPQLLIYLGSTRASGVPDRFSGSGSGTDFTLRISRVEAEDVGVYYCMQALQIPLTFGQGTKLEIK
notes: also called Ab 855; Antibody Number 855
B3: ADI-41579 (antibody, V domains shown)
VH: QVQLVESGAEARKPGSSVKVSCKLSGGTFSTDPISWVRQAPGQGLEWMGRIIPLLGIANYAQKFQGRVTIIADKSTSTVYMELRNLRFEDTAVYFCARRGDGYYGMDVWGQGTTVTVSS
VL: QSVLTQPASVSGSPGQSITISCTGTSNDIGGYDYVSWYQQHPGKAPKLMIYDVHNRPSGVSNRFSGSKSGNTASLTISGLQAEDEADYYCSSFSDSGNLYVFGTGTKLTVL
B4: ADI-41586 (antibody, V domains shown)
VH: QVQLQQWGAGLLKPSETLSLTCAVYGGSFSGYSWSWIRQPPGKGLEWIGDIDHDGSTYYNSSLKSRVTMSIDTSKNQFSLKLSSVTAADTAVYYCARVGGNSGYWGQGTLVTVSS
VL: not shown
notes: also called Ab 860; Antibody Number 860
B5: ADI-41564 (antibody, V domains shown)
VH: QVQLVQSGAEVKKPGSSVKVSCKAFGGTLRRYALSWVRQAPGQGLEWMGGIIPVFGTRRYAQKFQGRITITADGSTSTASMEVSSLRFEDTAIYYCATVYFDFVSGPPPTYYYYYMDVWGKGTTVTVSS
VL: DIVMTQSPGTLSLSPGERATLSCRASQSVSSSYLAWYQQKPGQAPRLLIYGASSRATGIPDRFSGSGSGTDFTLTISRLEPEDFAVYYCQQYDSSLRVLTFGGGTKVDIK
notes: also called Ab 844; Antibody Number 844
B6: ADI-41583 (antibody, V domains shown)
VH: QVQLVQSGAEVKKPGSSVKVSCKASGGTFSRHTITWVRQAPGQGLEWMGRIAPIVGFANYAQKFQGRVTITADKSTSTAYMELRSLRSEDTAVYYCARRSEDYYGLDVWGQGTTVTVSS
VL: DIVMTQSPSSLSASVGDRVTITCQASQDISNYLNWYQQKPGKAPKLLIYEASNLETGVPSRFSGSGSGTDFTFTISSLQPEDIATYYCQQYDNLFGGGTKLEIK
B7: ADI-41580 (antibody, V domains shown)
VH: QVQLQQWGAGLLKPSETLSLTCAVYGGSFSGYYWSWIRQPPGKGLEWIGEMNHSGGSNYNPSFKSRVTISVDTSKKYFSLNLSSVTAADTAIYYCARTPFYYESTGYYYYYYGMDVWGQGTTVTVSS
VL: DIVMTQTPDSLAVSLGERATINCKSSQSVSHSSNNKNYLSWYQQKPGQPPKLLIYWASIRESEAPDRFTGSGSGTDFTLTISSLQAEDVAVYYCQQYYTAPITFGQGTRLEIK
notes: also called Ab 854; Antibody Number 854
B8: ADI-41569 (antibody, V domains shown)
VH: EVQLLESGAEVKKPGSSVKVSCKASGGTFSTYAISWVRQAPGQGLEWMGGIIPVLGTTKYAQKFQDRVTITADESTSTAYMDLSGLRSDDTAVYYCARGVWGDCGRASCLFDWYFDLWGRGTLVTVSS
VL: EIVMTQSPATLSVSPGERVTLSCSASQTVSSNLAWYQQKPGQAPRLLIYGASIRATDIPARFSGSGSRTEFTLTISSLQSEDFAVYYCQQYNNRPPLTFGGGTKVEIK
notes: also called Ab 847; Antibody Number 847

What follows are binders tested against RSV F on RSV-A2 virus (Respiratory syncytial virus, RSV-A2, UniProt P03420 26-574) (assay: cell-based or functional assay).
In the case of B1, the “Neutralization IC50 (RSV subtype A)” value is reported as 25 µg/mL.
In the case of B2, the “Neutralization IC50 (RSV subtype A)” value is reported as over 25 µg/mL.
With B3 the “Neutralization IC50 (RSV subtype A)” value was 0.209 µg/mL.
For B4, the “Neutralization IC50 (RSV subtype A)” value was 0.402 µg/mL.
B5 was tested, and the “Neutralization IC50 (RSV subtype A)” value was over 25 µg/mL.
With B6 the “Neutralization IC50 (RSV subtype A)” value was over 25 µg/mL.
With B7 the “Neutralization IC50 (RSV subtype A)” value was 1.11 µg/mL.
B8 was tested, and the “Neutralization IC50 (RSV subtype A)” value was over 25 µg/mL.

These binders were tested against RSV prefusion F (preF), DS-Cav1 (Respiratory syncytial virus, UniProt P03420 26-513) (assay: BLI, IgG on anti-human IgG sensor, 100 nM antigen).
B1 gave a Kd of 2.97 nM.
Work on B2 yielded a Kd of 2.77 nM.
In the case of B3, the Kd is reported as 0.471 nM.
B4 gave a Kd of 0.538 nM.
Work on B5 yielded a Kd of 4.44 nM.
Binder B6 has a Kd of 0.664 nM.
With B7 the Kd was 2.98 nM.
Binder B8 has a Kd of 3.3 nM.

These binders were tested against RSV postfusion F (postF), F ΔFP (Respiratory syncytial virus, UniProt P03420 26-513) (assay: BLI, IgG on anti-human IgG sensor, 100 nM antigen).
B1 gave a Kd of 1.12 nM.
B2 was tested, and the Kd was 0.361 nM.
B3 showed a Kd of 0.36 nM.
B4 gave a Kd of 0.779 nM.
For B5, the Kd was 0.596 nM.
B6 showed a Kd of 0.381 nM.
B7 gave a Kd of 1.17 nM.
Work on B8 yielded a Kd of 1.61 nM.
